{
  "source": "paper PMC11134355",
  "about": "(JACS Au, 2024)",
  "binders": {"B1": {"name": "TgCyp18 (enzyme)", "chain": "not shown"}},
  "assay_in_all_cases": "fluorescence polarisation",
  "conditions_in_all_cases": "both partners purified",
  "key": {"[1]": {"target": "TgPDCD5 middle-position peptide (FITC-VLTPAAQE) (T. gondii (GT1 strain), FITC label, printed before the first residue (FITC-VLTPAAQE))"}, "[2]": {"target": "TgPDCD5 C-terminal peptide (FITC-KNTPKVTM) (T. gondii (GT1 strain), FITC label, printed before the first residue (FITC-KNTPKVTM))"}, "[3]": {"target": "TgPDCD5 N-terminal peptide (FITC-MQPEEFA) (T. gondii (GT1 strain), FITC label, printed before the first residue (FITC-MQPEEFA))"}},
  "data": [
    {"binder": "B1", "values": [
      {"measurement": "Kd", "setting": "[1]", "value": 1200, "unit": "µM"},
      {"measurement": "Kd", "setting": "[2]", "value": 311, "unit": "µM"},
      {"measurement": "Kd", "setting": "[3]", "value": 1400, "unit": "µM"}
    ]}
  ]
}
